Tests used:
[1] = target: T1, monomeric SARS-CoV-2 receptor binding domain (RBD-H6) (SARS-CoV-2, UniProt P0DTC2 319-541); assay: ELISA screen
T1 construct: Made in HEK293-6E cells; also called RBD Spike; monomeric RBD

[2] = target: T2, human recombinant soluble ACE2 (human, UniProt Q9BYF1 18-740); assay: ELISA screen
T2 construct: also called hrsACE2

[3] = target: T3, full-length trimeric SARS-CoV-2 Spike protein (Spike-H6) (SARS-CoV-2, N-glycosylated (22 N-glycosylation sites)); assay: ELISA screen
T3 construct: also called trimeric Spike; full-length Spike-H6

[4] = target: T2, human recombinant soluble ACE2; assay: ELISA

T2 sequence (Q9BYF1 18-740 limits assumed): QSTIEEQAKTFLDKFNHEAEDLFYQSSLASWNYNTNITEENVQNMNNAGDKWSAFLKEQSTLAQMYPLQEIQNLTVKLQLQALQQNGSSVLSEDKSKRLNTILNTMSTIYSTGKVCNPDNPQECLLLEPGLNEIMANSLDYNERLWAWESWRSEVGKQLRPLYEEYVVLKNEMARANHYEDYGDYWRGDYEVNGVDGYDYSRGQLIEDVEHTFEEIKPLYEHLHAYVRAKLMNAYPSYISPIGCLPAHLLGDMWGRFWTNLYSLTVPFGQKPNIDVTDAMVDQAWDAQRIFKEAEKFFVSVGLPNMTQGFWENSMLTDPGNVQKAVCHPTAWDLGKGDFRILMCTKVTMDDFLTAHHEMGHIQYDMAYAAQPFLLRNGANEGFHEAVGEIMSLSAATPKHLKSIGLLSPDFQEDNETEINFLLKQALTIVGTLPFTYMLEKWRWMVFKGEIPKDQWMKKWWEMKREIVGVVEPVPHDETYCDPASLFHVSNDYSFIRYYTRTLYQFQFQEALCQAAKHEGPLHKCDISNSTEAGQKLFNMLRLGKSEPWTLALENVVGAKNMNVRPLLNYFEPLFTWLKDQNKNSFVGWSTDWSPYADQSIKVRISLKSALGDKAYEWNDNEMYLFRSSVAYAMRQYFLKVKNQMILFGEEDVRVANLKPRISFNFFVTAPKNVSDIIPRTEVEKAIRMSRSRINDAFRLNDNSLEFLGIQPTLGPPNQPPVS

Binder | Mean normalized OD [1] [OD] | Mean normalized OD [2] [OD] | Mean normalized OD [3] [OD] | binding result [4]
Pla2r1_4 CRD-mouse IgG2a-Fc fusion protein (Fc fusion) GLASCFKVFHSEKVLMKRSWREAEAFCEEFGAHLASFAHIEEENFVNELLHSKFNWTQERQFWIGFNRRNPLNAGSWAWSDGSPVVSSFLDNAYFEEDAKNCAVYKANKTLLPSNCASKHEWICRGGGSGGGSGGGS | 0.053 | 0.088 | 0.063 | no binding (tested: 10 µg/ml)
Pla2r1_5 CRD-mouse IgG2a-Fc fusion protein (Fc fusion) YQNAEYLFHTHPAEWATFEFVCGWLRSDFLTIYSAQEQEFIHSKIKGLTKYGVKWWIGLEEGGARDQIQWSNGSPVIFQNWDKGREERVDSQRKRCVFISSITGLWGTENCSVPLPSICKGGGSGGGSGGGS | 0.036 | 0.065 | 0.029 | no binding (tested: 10 µg/ml)
Pla2r1_7 CRD-mouse IgG2a-Fc fusion protein (Fc fusion) YGNRTYKIIRGNMTWYAAGKSCRMHRAELASIPDAFHQAFLTVLLSRLGHTHWIGLSTTDNGQTFDWSDGTKSPFTYWKDEESAFLGDCAFADTNGRWHSTACESFLQGAICGGGSGGGSGGGS | 0 | 0 | 0.002 | no binding (tested: 10 µg/ml)
Sele CRD-mouse IgG2a-Fc fusion protein (Fc fusion) WYYNASSELMTYDEASAYCQRDYTHLVAIQNKEEINYLNSNLKHSPSYYWIGIRKVNNVWIWVGTGKPLTEEAQNWAPGEPNNKQRNEDCVEIYIQRTKDSGMWNDERCNKKKLALCYGGGSGGGSGGGS | 0 | 0 | 0.001 | no binding (tested: 10 µg/ml)
Selp CRD-mouse IgG2a-Fc fusion protein (Fc fusion) WTYNYSTKAYSWNNSRVFCRRHFTDLVAIQNKNEIAHLNDVIPFFNSYYWIGIRKINNKWTWVGTNKTLTEEAENWADNEPNNKKNNQDCVEIYIKSNSAPGKWNDEPCFKRKRALCGGGSGGGSGGGS | 0.007 | 0 | 0.014 | no binding (tested: 10 µg/ml)
Sftpd CRD-mouse IgG2a-Fc fusion protein (Fc fusion) VGDKIFRTADSEKPFEDAQEMCKQAGGQLASPRSATENAAIQQLITAHNKAAFLSMTDVGTEGKFTYPTGEPLVYSNWAPGEPNNNGGAENCVEIFTNGQWNDKACGEQRLVICEFGGGSGGGSGGGS | 0.002 | 0.016 | 0.031 | no binding (tested: 10 µg/ml)
Siglec15 CRD-mouse IgG2a-Fc fusion protein (Fc fusion) PAQRWSMQVPAEVNAEAGDAAVLPCTFTHPHRHYDGPLTAIWRSGEPYAGPQVFRCTAAPGSELCQTALSLHGRFRLLGNPRRNDLSLRVERLALADSGRYFCRVEFTGDAHDRYESRHGGGSGGGSGGGS | 0.001 | 0.011 | 0.008 | no binding (tested: 10 µg/ml)
Thbd CRD-mouse IgG2a-Fc fusion protein (Fc fusion) VEHECFALFQGPATFLDASQACQRLQGHLMTVRSSVAADVISLLLSQSSMDLGPWIGLQLPQGCDDPVHLGPLRGFQWVTGDNHTSYSRWARPNDQTAPLCGPLCVTVSTATEAAPGEPAWEEKPCETETQGFLCEFGGGSGGGSGGGS | 0 | 0.001 | 0.003 | no binding (tested: 10 µg/ml)
Cd22 CRD-mouse IgG2a-Fc fusion protein (Fc fusion) SANDWTVDHPQTLFAWEGACIRIPCKYKTPLPKARLDNILLFQNYEFDKATKKFTGTVLYNATKTEKDPESELYLSKQGRVTFLGNRIDNCTLKIHPIRANDSGNLGLRMTAGTERWMEPIHLNVSEGGGSGGGSGGGS | 0.004 | 0.006 | 0.027 | no binding (tested: 10 µg/ml)
Cd72 CRD-mouse IgG2a-Fc fusion protein (Fc fusion) CCPCGWIPYQERCFYISHTLGSLEESQKYCTSLSSKLAAFDEPSKYYYEVSLPSGLEELLDRSKSYWIQMSKKWRQDSDSQSRHCVRIKTYYQKWERTISKCAELHPCICESGGGSGGGSGGGS | 0.015 | 0.044 | 0.033 | no binding (tested: 10 µg/ml)
Clec10a CRD-mouse IgG2a-Fc fusion protein (Fc fusion) CCPLHWTEHEGSCYWFSESEKSWPEADKYCRLENSHLVVVNSLEEQNFLQNRLANVVSWIGLTDQNGPWRWVDGTDFEKGFKNWAPLQPDNWFGHGLGGGEDCAHITTGGPWNDDVCQRTFRWICEMGGGSGGGSGGGS | 0.064 | 0.125 | 0.069 | no binding (tested: 10 µg/ml)
Clec11a CRD-mouse IgG2a-Fc fusion protein (Fc fusion) LGHKCFLLSRDFETQAAAQARCKARGGSLAQPADRQQMDALSRYLRAALAPYNWPVWLGVHDRRSEGLYLFENGQRVSFFAWHRAFSLESGAQPSAATHPLSPDQPNGGVLENCVAQASDDGSWWDHDCERRLYFVCEGGGSGGGSGGGS | 0.011 | 0.17 | 0.032 | no binding (tested: 10 µg/ml)
Asgr2 CRD-mouse IgG2a-Fc fusion protein (Fc fusion) CCPVNWVEFGGSCYWFSRDGLTWAEADQYCQLENAHLLVINSREEQDFVVKHRSQFHIWIGLTDRDGSWKWVDGTDYRSNYRNWAFTQPDNWQGHEQGGGEDCAEILSDGHWNDNFCQQVNRWVCEKGGGSGGGSGGGS | 0.013 | 0.034 | 0.003 | no binding (tested: 10 µg/ml)
Clec12b CRD-mouse IgG2a-Fc fusion protein (Fc fusion) YGNSCYYFSINEEKSWSDSRKDCIDKNATLVKIDSTEERDLLQSQLSLTFSFFWLGLSWNSSGRNWLWEDGSFPPPTLFSDKELASFNGSRDCAYFERGNIYASRCSAEIPWICEGGGSGGGSGGGS | 0.001 | 0.007 | 0.002 | no binding (tested: 10 µg/ml)
Clec14a CRD-mouse IgG2a-Fc fusion protein (Fc fusion) ASGACYSLHHATFKRRAAEEACSLRGGTLSTVHSGSEFQAVLLLLRAGPGPGGGSKDLLFWVALERSISQCTQEKEPLRGFSWLHPDSEDSEDSPLPWVEEPQRSCTVRKCAALQATRGVEPAGWKEMRCHLRTDGYLCKYGGGSGGGSGGGS | 0.004 | 0.029 | 0.012 | no binding (tested: 10 µg/ml)
Clec1b CRD-mouse IgG2a-Fc fusion protein (Fc fusion) HGDSCYGFFRRNLTWEESKQYCTEQNATLVKTASQSTLDYIAERITSVRWIGLSRQNSKKDWMWEDSSVLRKNGINLSGNTEENMNCAYLHNGKIHPASCKERHYLICEGGGSGGGSGGGS | 0.03 | 0.04 | 0.024 | no binding (tested: 10 µg/ml)
Clec2e CRD-mouse IgG2a-Fc fusion protein (Fc fusion) FGNKCFYFSEDMGNWTFSQSSCIALDAHLALFDSLEELNFLKRYKGASDHWIGLHRESSEHPWIWTDNTEYNNLVLTRGGGECAYLSNRGIYNSSGDIHKKWICNGGGSGGGSGGGS | 0.016 | 0.066 | 0.017 | no binding (tested: 10 µg/ml)

From patent EP4039268A1 (IMBA-Institut für Molekulare Biotechnologie GmbH, dated 2022)
